In US12060433B2, “CD73 inhibitor and A2A/A2B adenosine receptor inhibitor combination therapy” (Incyte Corporation, priority 2020, dated 2024):

Key:
[1] = target: T1, CD73 on the cell surface of MDA-MB-231 cells (Homo sapiens, UniProt P21589); assay: CD73 cell surface levels after 24 hour antibody treatment; assay type: cell-based; conditions: 10 μg/mL antibody
T1 construct: endogenous in cells; host or cells: MDA-MB-231
T1 sequence (P21589 27-549): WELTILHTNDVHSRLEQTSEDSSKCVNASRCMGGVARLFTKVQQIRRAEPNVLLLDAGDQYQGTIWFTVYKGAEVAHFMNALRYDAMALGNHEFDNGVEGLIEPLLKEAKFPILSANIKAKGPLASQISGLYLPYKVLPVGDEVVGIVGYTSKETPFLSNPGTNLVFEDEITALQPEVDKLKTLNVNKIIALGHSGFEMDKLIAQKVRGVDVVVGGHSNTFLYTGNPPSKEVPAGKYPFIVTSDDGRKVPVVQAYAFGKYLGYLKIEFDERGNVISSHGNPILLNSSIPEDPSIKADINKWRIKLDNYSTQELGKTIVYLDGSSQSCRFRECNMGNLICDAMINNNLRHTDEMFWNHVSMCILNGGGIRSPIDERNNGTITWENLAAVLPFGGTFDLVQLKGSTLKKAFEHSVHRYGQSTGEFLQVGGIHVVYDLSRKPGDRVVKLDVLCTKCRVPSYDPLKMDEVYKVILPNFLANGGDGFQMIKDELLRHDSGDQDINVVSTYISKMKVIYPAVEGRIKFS
Experimental: Indicated antibodies were added at a final concentration of 10 μg/mL and plates were incubated at 37° C. 5% CO2 for 24 hours. Cells were recovered using Versene and transferred to new 96-well plates. Cells were washed and stained for 30 minutes on ice with 10 μg/mL of non-competing antibody directly conjugated to Dy650. Cells were washed and analyzed by flow cytometry. CD73 cell surface receptor density was determined by Antibody Binding Capacity (ABC) using Quantum Simply Cellular beads.

[2] = test system: cynomolgus CD73 (SEQ ID NO: 72); assay: SPR (Biacore 8K) binding affinity and kinetics to cynomolgus CD73
Chain of cynomolgus CD73 (SEQ ID NO: 72) (as listed by the source): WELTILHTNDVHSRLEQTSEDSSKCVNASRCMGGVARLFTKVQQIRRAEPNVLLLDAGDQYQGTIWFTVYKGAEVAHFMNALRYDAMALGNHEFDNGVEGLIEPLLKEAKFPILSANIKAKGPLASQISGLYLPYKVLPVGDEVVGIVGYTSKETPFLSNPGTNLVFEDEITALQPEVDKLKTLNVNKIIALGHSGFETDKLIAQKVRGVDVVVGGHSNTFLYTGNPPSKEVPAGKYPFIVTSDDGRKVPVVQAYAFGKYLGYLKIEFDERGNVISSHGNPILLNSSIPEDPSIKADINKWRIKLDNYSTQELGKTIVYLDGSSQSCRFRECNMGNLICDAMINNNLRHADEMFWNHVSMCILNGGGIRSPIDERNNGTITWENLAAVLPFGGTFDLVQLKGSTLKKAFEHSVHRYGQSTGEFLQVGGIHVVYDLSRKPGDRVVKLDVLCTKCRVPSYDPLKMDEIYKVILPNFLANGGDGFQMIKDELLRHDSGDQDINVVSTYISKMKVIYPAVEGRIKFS
Experimental: The SPR running buffer (10 mM HEPES, 150 mM NaCl, 3 mM EDTA and 0.05% v/v Surfactant P20, pH 7.4) was prepared from 10×HBS-EP Buffer (GE Healthcare). Anti-human Fc antibodies (GE Healthcare) were immobilized via amine coupling on all sixteen flow cells of an S series sensor chip CM5 (GE Healthcare). The immobilization levels were ˜9000 RU for all flow cells. The desired capturing level of anti-CD73 antibody was achieved by flowing appropriate concentration of anti-CD73 antibody through the active flow cell of each channel. The non-cleavable ADP analogue APCP (adenosine-5′-(α,β-methylene) diphosphate) with the presence of Zn^2+ can be used to shift the CD73 conformational equilibrium from open towards closed. Therefore, recombinant CD73 was incubated with SPR running buffer in the presence of 100 μM APCP and 10 μM ZnCl2 (closed SPR running buffer) to study the binding of anti-CD73 antibody to the CD73 in the closed conformation. To achieve this, the ABA injection feature in Biacore 8K was used. For open conformation, the ABA injection sequence started with 60 seconds injection of running buffer. Then, CD73 3-fold serial dilution concentration series prepared from CD73 stock (BPS Bioscience) and running buffer were injected for 180 seconds immediately followed by running buffer for 240 seconds. For closed conformation, the normal SPR running buffer was replaced by closed SPR running buffer. Surface was regenerated with 30 seconds injection of 3 M MgCl2. […] Binding affinities and kinetic association and dissociation rate constants to human, cynomolgus, and mouse CD73 in either open or closed conformations are shown in Table 8 below. The results in Table 8 ensure cynomolgus pharmacokinetic data will reflect human pharmacokinetic data.
Binding affinities and kinetic association and dissociation rate constants to human, cynomolgus, and mouse CD73 in either open or closed conformations are shown in Table 9 below.

[3] = target: T2, cell surface CD73 on A375 cells (Homo sapiens, UniProt P21589); assay: Binding to cell surface CD73 by flow cytometry (GMFI), A375 cells; assay type: cell-based; conditions: moderate levels of surface CD73
T2 construct: endogenous in cells; host or cells: A375
T2 sequence (P21589 27-549): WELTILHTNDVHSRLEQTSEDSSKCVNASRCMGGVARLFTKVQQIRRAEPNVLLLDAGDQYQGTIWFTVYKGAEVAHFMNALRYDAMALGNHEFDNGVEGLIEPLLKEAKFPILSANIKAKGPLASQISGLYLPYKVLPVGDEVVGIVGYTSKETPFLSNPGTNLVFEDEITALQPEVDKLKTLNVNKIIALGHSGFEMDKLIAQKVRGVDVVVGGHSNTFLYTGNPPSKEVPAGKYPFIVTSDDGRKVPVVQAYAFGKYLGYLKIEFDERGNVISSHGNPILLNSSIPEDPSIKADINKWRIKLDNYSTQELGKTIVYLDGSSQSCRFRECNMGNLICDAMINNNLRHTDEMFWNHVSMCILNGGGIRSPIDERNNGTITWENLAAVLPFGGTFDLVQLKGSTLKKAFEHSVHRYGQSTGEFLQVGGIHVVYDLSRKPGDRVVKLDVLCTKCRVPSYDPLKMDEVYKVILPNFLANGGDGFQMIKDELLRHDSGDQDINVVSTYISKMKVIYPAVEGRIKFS
Experimental: To test the binding of humanized and non-humanized CL25 clones to cell surface CD73, MDA-MB-231 or A375 cells were washed and added to 96-well plates at 5×10^4 cells/well. The cells were stained with the indicated concentration of antibodies for 30 minutes on ice (FIG. 2A and FIG. 2B). Next, the cells were washed and stained using goat anti-mouse secondary conjugated to phycoerythrin (PE) for 30 minutes on ice. The cells were then washed and analyzed by flow cytometry. Geometric mean fluorescence intensity (GMFI) of CD73 staining was graphed (FIG. 2A and FIG. 2B).

[4] = cynomolgus CD73, closed conformation

B1: CL25: chimeric anti-human CD73 monoclonal antibody, murine VH SEQ ID NO:26 and VL SEQ ID NO:27 with human IgG1 Fc (antibody, V domains shown)
VH: QVQLQQSGAELARPGASVKLSCRASGYTFTSYGLSWVKQRTGQGLEWIGEIYPGSGNTYYNEKFKGKATLTADKSSSTAYMELRSLTSEDSAVYFCARYDYLGSSYGFDYWGQGTTLTVSS
VL: DIVMTQSHKFMSTSVGDRVSITCKASQDVSTAVAWYQQKPGQSPKLLIYSASYRYNGVPDRFTGSGSGTDFTFTISSVQAEDLAVYYCQQHYNTPYTFGGGTKLEIK
modifications: human IgG1 Fc constant regions without entry
[1]
  level of CD73 on the cell surface: decreased the levels of cell surface CD73
[2]; [4]
  ka: 936000 M⁻¹ s⁻¹
  kd: 0.000495 s⁻¹
[2]; cynomolgus CD73, open conformation
  kd: 0.000658 s⁻¹
[3]
  cell binding (GMFI): high potency binding
